± gives the uncertainty stated by the source.
assay: amyloid nucleation score (Sup35N fusion, yeast selection) (log enrichment); library NNK3; higher = more nucleation; inactive = no reads after selection
Outline: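 The nucleation score, computed with DiMSum, is the log enrichment of output over input reads, centred on the mode score of non-aggregating sequences. Sequences with under 100 input reads were dropped. Reads were generated by Illumina sequencing of plasmid inserts from psi-negative yeast with Sup35N fused to peptides of 20 random codons, induced with 100 μM copper sulfate for 24 hours and grown 7 days at 30°C on medium lacking adenine and uracil.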

Substance	amyloid nucleation score
DICLSYIFLL	0.84 ± 0.17
KESVYPTWHMRWFVYCELVL	inactive
TFFFTVLG	1.55 ± 0.12
PYYRRMPVDSARRTSKSK	inactive
AKHGLVDAQRALGISYQKNK	0.967 ± 0.11
SNGCKMYDKHVLYW	inactive
LWANNGSCFMCEYSHDGGKN	inactive
SMCDMYYLVACTPHMIVQLY	-0.111 ± 0.69
NWFCRGVIELPHPYAQTNFS	inactive
IKGIPKSIGSSSLGLHNHTV	inactive
ITSEIMAIWFDICKAWDLCV	inactive
SSPYDCSVNYLKNVSPRTLY	inactive
LVDLSRSISKSPMQKYRF	inactive
NWDTNFVYSIGIDIY	inactive
FIVYMSTHRA	1.67 ± 0.11
TLYVFWCEQFKRAYWLYVSK	inactive
TWATVTMVWCLNVNSVDTGL	2.26 ± 0.094
FLSGVTWHAYMIHSVFMDRC	0.881 ± 0.21
MISNHCYSLTMIAE	-0.432 ± 1
LRGNECRPGVELPVTVSKFR	inactive
RLVFNLGGYFLKWCIDCFIR	inactive
ILYSSYS	inactive
LFVMGRFVSFALFTWKTDNV	inactive

Substance	amyloid nucleation score
IVVCAQTLHSLGPRPIEPTQ	inactive
HPYSNVWMSL	inactive
RPMRDCIGHSQS	inactive
YSKRAHVFYES	-0.06 ± 0.36
TTGLFE	inactive
MMSTTKSRDNSIKDQLSGSS	inactive
RYNRA	inactive
QLFMPGSVVTHRSYFTCMWL	1.95 ± 0.064
FIVVVTYARWHSRYVSGWVS	inactive
WVSRNTVRGKVMSRCWVVQY	inactive
CNIEGYNETNVCECWNMELL	inactive
YFGCSYTNQAFGRSDSSYVD	inactive
RHELTNRREK	inactive
DFRGDLFELMMIYGRGMVLT	inactive
YKWARYVFTTDNYFWVPAGY	inactive
GPSWVTHESRKCTCQARDKV	inactive
IYRQDCGFSPKNRKMVSGAA	inactive
CLGYRFVWGVPFVKFDRIIW	inactive
CFKPILDLGSKCLFVLVVGK	inactive
CVEVLWERPSGTRAGMVGLL	-0.792 ± 1.4
CWTVMFCF	1.43 ± 0.11
HDLAGQFISV	inactive
FCEFWYLNSRKEATELRP	inactive

Substance	amyloid nucleation score
VTVSYIVNGMTSLFQVDVAS	inactive
MLGWCYLMTTCE	inactive
WGWGCLCMWYICYSCVYRDR	0.708 ± 0.28
DSDVWEPCFELEESKL	inactive
VIFDLVVGCGAVL	inactive
FYRSFSPSYNLYMYGIYDR	2.77 ± 0.067
RKAYATYATDRLISSDYG	inactive
SCISKWST	inactive
GSTCSDLLALYPWYVRIKEI	inactive
NRSCRDFRYY	inactive
YSNLLAYWIQISKWIATGRC	inactive
VFNIRHSSDPRLYLTYVMSS	1.19 ± 0.12
SVSSYAICVEACNYFRSRLV	inactive
QNNRHISHLGLQGDEQALVY	inactive
GYECLIVFFMRLLSIPVVSD	inactive
TTSCEVAWFEICLSSLNFTM	inactive
VSSSSEVHCYSSFMYISKSP	0.824 ± 0.16
HVSVFMCLCTVDTR	1.33 ± 0.078
YILSTLAFFGDRNYDMVLGC	inactive
NNVGPAFHDAC	inactive
LYMNFSMDGIASVSLGVLRL	0.633 ± 0.19
TALWYSYFSTKNDMSLQFAP	-0.673 ± 1.1
SRSIMSVLACHRMCERGPIW	0.827 ± 0.19

Substance	amyloid nucleation score
CCMYMISCRDN	inactive
SNWECLGGHENGINCRDI	inactive
TSCFYFAMVFEQVDWDSVHT	1.58 ± 0.11
GMRSLDMRWAGVMYVHRRRL	inactive
LFILFSNGYTVGYNSDNRSF	0.601 ± 0.22
FCEFDIDVVLCTHRLYCNRY	inactive
YSISKAFPMLSRLDMDMFGA	inactive
VRIMCMSWIVVWHYMC	inactive
IIHLNLSNVWYTPSGWYRVC	2.3 ± 0.063
SSYVQFYLGWLGRYCNGSYV	inactive
GGNGVPRVWSVFIRRVWNSV	inactive
ILVAGTAV	inactive
TFYVLRPTYSITRNGAPRPL	inactive
PLSLSGGDDDRLLSLEMLVL	inactive
GVMVPTALLISNPSRRFHWL	inactive
VHSPWVNNLYQCWTYYFLLL	0.162 ± 0.88
VQGSTIGG	inactive
AESIR	inactive
YMPFYDSCVRHAYRSSFR	0.038 ± 0.43
DHHLEEYRL	inactive
CVDFR	inactive
FVLRTNWGGISVYIYDVCSC	-0.238 ± 1.1
LFYGHVNLASYRVSNRSKTR	inactive

Substance	amyloid nucleation score
YTWLAFRFSTSLHPRYSNIG	inactive
ESYTWL	inactive
VHRWGYQCSWVEQ	inactive
GCYEGMLVIFLVFWLVVVYP	inactive
MFLRVSTTINAYFLRVRSLI	inactive
YWNLIWWAKQWDVFTGEEAL	inactive
VDTYHTFVVVLH	inactive
TGSFIIRISSSRTMLW	inactive
CNFNLILLMDGIKGSFL	2.35 ± 0.065
YKYVFHPIFFDQGT	inactive
LIFGYPVGKFTMMGLTSMWS	inactive
SRQPRCALVVDVPP	inactive
SHGHDSVTRNRQGPCGIRIY	inactive
QVGPWLDNSNSFCDDIKGMC	inactive
HVFCHVPNPCLVGSMLTLGD	inactive
HKLVFEHRLLVGPRNVDIFL	inactive
INLVNTLFTIILMRSYRRTR	0.022 ± 0.31
AFSKRSSWNNHFICVNDVVQ	inactive
LCMAFNVIPQTSFLALKASC	inactive
IRLKQQDFEGSGKLFNGGHL	inactive
DDLMASTMGSSMG	inactive
NLADAVEENGGYFHFTFPKF	inactive
SRFKMICSRDRLNNRSVVLG	inactive

Substance	amyloid nucleation score
SRTYKHKALAQFPYKYWCVP	inactive
LTLITPPTRS	inactive
IDFILWQFVMF	inactive
KLICVRTDWWSCVIISRFSL	inactive
MMSDLILV	-0.43 ± 1
NMRTCSIGSKPIVKFTYMCG	1.31 ± 0.15
YIGCCWYSSCDRVSYRYSVM	2.78 ± 0.06
TAFTGIRTWHCHCKRSYSLG	inactive
FELRVV	inactive
ASCPLSKKWMELGKCAGPTH	inactive
YNCGHLNYGIVNFLFYVWLI	inactive
SSSVRMRCSCISLASNKCAY	1.26 ± 0.12
YLVQNFKT	-0.401 ± 0.6
MIYGNWHIWFDVTAVKYEVG	inactive
TCTYCRFRLSSLVSW	0.366 ± 0.42
SLTGLVILMAYRDPPGLAQF	1.46 ± 0.13
FVSYRESKKDMQACCALCRS	0.965 ± 0.11
FFSCGDKLSFF	inactive
CLSLLNFDVCVMRSVVRVFA	inactive
MKKWDNNSLVLPLKGSGKED	inactive
SRSLWTLNIVFRHDCYTGKL	-0.05 ± 0.57
TLSKILLLSRYLYTRLKVRL	inactive
NYSMNARGPVKDLAVFGSRG	inactive

Substance	amyloid nucleation score
EFPRGLGSR	-0.236 ± 1
VSTWVQTPGTHMLGVIVYFE	inactive
TTTCHLRIKSNMRLSQEWLG	1.17 ± 0.12
SFSIDLMTSLSWHLLSCRTF	inactive
PNGSYAKQLLVSIL	inactive
EIVSWVDHFYWTWTGYHKCW	-0.886 ± 1
PYTTLYSFRNC	inactive
QSQLGPDCRSYTGGERVLDV	inactive
DGQARISRYSTWLEEFLRCG	inactive
FLRYGCMHYLGRMGLY	-0.079 ± 0.34
LHYMYTYFTTKVLSSRIGGV	inactive
LIKWFSFRWLVTILVIDQTY	inactive
TSMMSWQSSHCHVYWRTDWV	0.457 ± 0.4
LGESMRRVKVSVQIRIHMGQ	1.11 ± 0.16
KIQSMISTITMVFTKLLSHL	-0.546 ± 0.7
TRAYVVAIDQYFRGRRRNI	inactive
LIACSHSRNT	inactive
RSTWMAIWKERYMQTGFL	inactive
NQMEN	0.843 ± 0.36
HTIRL	inactive
YESHLLRNRDSRTYSR	inactive

— the supplement of paper PMC12042874
